Read-outs that look alike come from different tables or passages of the source. A value given as a limit tells only on which side of the number the result lay.

The EC50 is the midpoint of the concentration-response curve. A higher EC50 goes with lower potency in that assay. By Kd is commonly meant the concentration at which binding is half-saturated. Broadly, the koff is the rate constant with which the complex falls apart. A word on the EC50 (read off the curve): it is the concentration at which the effect is half-maximal. A low value points to greater potency.

In experiment [1] the target is T1, anchored ILT2 D3 domain protein (human).
T1 construct: on CHO cells; the entry includes leader remnant, V5 tag and CD24 GPI anchor signal
T1 sequence (chain, as listed by the source limits assumed): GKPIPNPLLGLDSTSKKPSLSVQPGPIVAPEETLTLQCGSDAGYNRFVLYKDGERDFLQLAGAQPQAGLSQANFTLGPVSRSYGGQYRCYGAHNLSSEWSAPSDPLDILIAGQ
The experiment in a line: flow cytometry on CHO cells expressing the anchored ILT2 D3 domain protein (SEQ ID NO: 48); stacked histograms, axis without numbers, no control histogram. (In general: Flow cytometry measures light scatter and fluorescence of single cells or particles in a stream.)

A further experiment concerns the target T2, ILT2 mutant 4-2 (human, UniProt Q8NHL6 24-650).
T2 construct: transfected in HEK293T cells
The experiment in a line: flow cytometry titration on HEK293T cells transfected with ILT2 mutant 4-2.

Experiment [2] concerns the target T3, anchored ILT2 D1-D2-D3 domain protein (human, UniProt Q8NHL6 24-321).
T3 construct: on CHO cells; the entry includes leader remnant, V5 tag and CD24 GPI anchor signal
Put plainly: flow cytometry, CHO cells with anchored ILT2 domain proteins.

Experiment [3] addresses T4, anchored ILT2 D2-D3 domain protein (human, UniProt Q8NHL6 122-321).
T4 construct: on CHO cells; the entry includes leader remnant, V5 tag and CD24 GPI anchor signal
The experiment is described as above.

Experiment [4] concerns the target T5, anchored ILT2 D1-D2 domain protein (human, UniProt Q8NHL6 24-222).
T5 construct: on CHO cells; the entry includes leader remnant, V5 tag and CD24 GPI anchor signal
The description is as above.

The target in experiment [5] is T6, anchored ILT2 D2 domain protein (human).
T6 construct: on CHO cells; the entry includes leader remnant, V5 tag and CD24 GPI anchor signal
T6 sequence (chain, as listed by the source limits assumed): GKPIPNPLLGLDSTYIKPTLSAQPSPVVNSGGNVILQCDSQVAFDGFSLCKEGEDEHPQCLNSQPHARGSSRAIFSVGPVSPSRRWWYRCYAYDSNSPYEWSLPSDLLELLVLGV
Described as above.

A further experiment deals with T7, ILT2 mutant 4-5 (human, UniProt Q8NHL6 24-650).
T7 construct: transfected in HEK293T cells
The experiment in a line: flow cytometry titration on HEK293T cells transfected with ILT2 mutant 4-5.

Experiment [6] concerns the target T8, human ILT2 (LILRB1) expressed at the surface of transfected cells (human, UniProt Q8NHL6 24-650).
T8 construct: also called CHO-ILT2; CHO ILT2 cell line
Put plainly: flow cytometry, CHO-ILT2 cells. As for the experimental part: Cells were incubated with various concentrations of unlabeled anti-ILT2 antibodies from 30 μg/ml to 5×10-⁴ μg/ml, for 30 minutes at 4° C. After washes with staining buffer, cells were incubated for 30 min at 4° C. with Goat anti-human H+L AF488 secondary antibody (Jackson Immunoresearch #109-546-088) or Goat anti-mouse H+L AF488 secondary antibody for commercially available antibodies (Jackson Immuoresearch #115-545-146). Fluorescence was measured on an Accury C6 flow cytometer equipped with an HTFC plate loader.

The target of experiment [7] is T9, ILT-2_6xHis recombinant protein (human, UniProt Q8NHL6 24-458).
T9 construct: monomers purified by SEC; also called recombinant 6xHIS tagged ILT2; recombinant human ILT2 proteins
The experiment in a line: SPR, antibody captured on Protein-A, soluble ILT2 analyte. As for the experimental part:
(§1) Measurements were performed on a Biacore T200 apparatus (Biacore GE Healthcare) at 25° C. In all Biacore experiments HBS-EP+(Biacore GE Healthcare) and NaOH 10 mM served as running buffer and regeneration buffer respectively. Sensorgrams were analyzed with Biacore T100 Evaluation software. Protein-A was purchased from (GE Healthcare). Human ILT2 recombinant proteins were cloned, produced and purified at Innate Pharma. Protein-A proteins were immobilized covalently to carboxyl groups in the dextran layer on a Sensor Chip CM5. The chip surface was activated with EDC/NHS (N-ethyl-N′-(3-dimethylaminopropyl) carbodiimidehydrochloride and N-hydroxysuccinimide (Biacore GE Healthcare)). Protein-A was diluted to 10 μg/ml in coupling buffer (10 mM acetate, pH 5.6) and injected until the appropriate immobilization level was reached (i.e. 600 RU). Deactivation of the remaining activated groups was performed using 100 mM ethanolamine pH 8 (Biacore GE Healthcare). […] For blank subtraction, cycles were performed again replacing ILT2 proteins with running buffer. The monovalent affinity analysis was conducted following a regular Capture-Kinetic protocol as recommended by the manufacturer (Biacore GE Healthcare kinetic wizard). Seven serial dilutions of human ILT2 proteins, ranging from 1.95 nM to 250 nM were sequentially injected over the captured antibodies and allowed to dissociate for 10 min before regeneration. The entire sensorgram sets were fitted using the 1:1 kinetic binding model or two state reaction model, as a function of the profile of the curves.
Background: Surface plasmon resonance follows binding to a sensor surface in real time, without labels.

The target in experiment [8] is T10, human ILT2 on primary NK cells (human, UniProt Q8NHL6 24-650).
T10 construct: whole, on cells
T10 sequence (Q8NHL6 24-650): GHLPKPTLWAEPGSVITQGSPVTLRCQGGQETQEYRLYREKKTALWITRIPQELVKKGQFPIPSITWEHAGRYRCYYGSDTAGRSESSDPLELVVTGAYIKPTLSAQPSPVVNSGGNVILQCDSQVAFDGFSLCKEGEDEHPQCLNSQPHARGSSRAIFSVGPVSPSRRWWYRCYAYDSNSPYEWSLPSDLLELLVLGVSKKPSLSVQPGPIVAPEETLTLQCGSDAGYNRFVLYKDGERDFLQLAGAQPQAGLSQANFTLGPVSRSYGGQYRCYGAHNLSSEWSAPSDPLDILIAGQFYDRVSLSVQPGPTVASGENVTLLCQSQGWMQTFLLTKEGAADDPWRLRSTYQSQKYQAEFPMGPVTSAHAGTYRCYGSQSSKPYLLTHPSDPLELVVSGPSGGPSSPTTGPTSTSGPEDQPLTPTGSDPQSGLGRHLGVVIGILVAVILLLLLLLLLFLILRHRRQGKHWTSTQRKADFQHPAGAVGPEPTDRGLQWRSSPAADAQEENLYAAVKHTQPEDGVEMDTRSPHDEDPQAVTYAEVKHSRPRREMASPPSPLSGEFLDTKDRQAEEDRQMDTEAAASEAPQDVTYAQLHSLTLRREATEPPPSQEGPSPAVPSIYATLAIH
The experiment in a line: flow cytometry, primary NK cells.

The target of experiment [9] is T11, human ILT4 (LILRB2) on CHO cells (human, UniProt Q8N423 23-597).
T11 construct: also called CHO ILT4 cell line
T11 sequence (Q8N423 other isoform, or with tags, fused parts or gaps): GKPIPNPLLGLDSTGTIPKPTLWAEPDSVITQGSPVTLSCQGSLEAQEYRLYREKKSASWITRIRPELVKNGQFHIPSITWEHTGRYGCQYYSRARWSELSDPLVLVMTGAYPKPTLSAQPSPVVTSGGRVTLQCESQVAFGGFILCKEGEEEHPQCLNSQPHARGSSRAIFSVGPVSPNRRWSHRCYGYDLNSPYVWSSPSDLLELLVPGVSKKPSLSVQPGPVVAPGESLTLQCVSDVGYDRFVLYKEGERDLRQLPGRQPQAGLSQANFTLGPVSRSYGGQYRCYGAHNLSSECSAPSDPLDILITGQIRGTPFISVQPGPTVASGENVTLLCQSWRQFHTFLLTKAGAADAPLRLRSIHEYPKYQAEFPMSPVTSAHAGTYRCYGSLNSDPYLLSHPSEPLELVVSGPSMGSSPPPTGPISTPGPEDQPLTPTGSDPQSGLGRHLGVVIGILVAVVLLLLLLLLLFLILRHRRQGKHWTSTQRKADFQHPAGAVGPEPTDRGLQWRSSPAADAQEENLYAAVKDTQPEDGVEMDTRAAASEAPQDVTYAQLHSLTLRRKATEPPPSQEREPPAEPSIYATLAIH
The experiment in a line: flow cytometry, CHO transfectants.

Experiment [10] addresses T12, human ILT3 (LILRB4) on CHO cells (human, UniProt Q8NHJ6 24-443).
T12 construct: also called CHO ILT3 cell line
The experiment in a line: flow cytometry, CHO transfectants.

Experiment [11] concerns the target T13, human ILT6 (LILRA3) on CHO cells (human, UniProt Q8N6C8 24-434).
T13 construct: also called CHO ILT6 cell line; human ILT-6 polypeptide
Put plainly: flow cytometry, CHO transfectants.

In experiment [12] the target is T14, human ILT8 (LILRA6) on CHO cells (human, UniProt Q6PI73 24-477).
T14 construct: also called CHO ILT8 cell line
T14 sequence (Q6PI73 other isoform, or with tags, fused parts or gaps): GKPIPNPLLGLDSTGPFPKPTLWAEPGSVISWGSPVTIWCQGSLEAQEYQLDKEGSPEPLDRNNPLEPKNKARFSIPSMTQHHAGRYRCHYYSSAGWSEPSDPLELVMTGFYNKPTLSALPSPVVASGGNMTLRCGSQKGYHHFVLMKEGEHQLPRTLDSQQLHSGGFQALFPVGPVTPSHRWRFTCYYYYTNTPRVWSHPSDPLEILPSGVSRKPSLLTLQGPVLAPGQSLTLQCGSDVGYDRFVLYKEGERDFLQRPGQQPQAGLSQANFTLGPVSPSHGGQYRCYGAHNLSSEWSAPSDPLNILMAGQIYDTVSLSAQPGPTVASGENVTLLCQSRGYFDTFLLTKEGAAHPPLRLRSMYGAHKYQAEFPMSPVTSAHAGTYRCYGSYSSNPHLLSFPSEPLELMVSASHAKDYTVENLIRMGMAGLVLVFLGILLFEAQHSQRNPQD
Put plainly: flow cytometry, CHO transfectants.

Experiment [13] addresses T15, human ILT1 (LILRA2) on CHO cells (human, UniProt Q8N149 24-475).
T15 construct: also called CHO ILT1 cell line
Put plainly: flow cytometry, CHO transfectants.

The target of experiment [14] is T16, human ILT5 (LILRB3) on CHO cells (human, UniProt O75022 24-626).
T16 construct: also called CHO ILT5 cell line
T16 sequence (O75022 other isoform, or with tags, fused parts or gaps): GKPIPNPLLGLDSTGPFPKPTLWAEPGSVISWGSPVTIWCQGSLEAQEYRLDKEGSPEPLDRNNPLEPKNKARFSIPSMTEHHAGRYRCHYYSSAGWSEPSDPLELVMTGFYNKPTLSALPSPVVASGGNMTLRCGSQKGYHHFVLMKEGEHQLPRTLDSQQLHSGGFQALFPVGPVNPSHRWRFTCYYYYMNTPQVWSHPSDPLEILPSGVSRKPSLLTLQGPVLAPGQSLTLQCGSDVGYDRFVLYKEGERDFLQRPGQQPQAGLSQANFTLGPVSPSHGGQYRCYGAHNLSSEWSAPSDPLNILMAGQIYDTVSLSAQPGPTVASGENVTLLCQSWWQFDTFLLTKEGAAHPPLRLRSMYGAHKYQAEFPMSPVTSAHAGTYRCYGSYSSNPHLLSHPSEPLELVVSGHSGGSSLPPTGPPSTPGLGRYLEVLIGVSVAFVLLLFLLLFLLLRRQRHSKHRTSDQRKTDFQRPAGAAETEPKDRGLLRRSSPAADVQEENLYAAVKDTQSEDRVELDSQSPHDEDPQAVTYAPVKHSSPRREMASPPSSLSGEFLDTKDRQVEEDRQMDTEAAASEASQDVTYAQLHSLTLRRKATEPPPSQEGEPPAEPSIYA
The experiment in a line: flow cytometry, CHO transfectants.

In experiment [15] the target is T17, human ILT7 (LILRA4) on CHO cells (human, UniProt P59901 28-494).
T17 construct: also called CHO ILT7 cell line
T17 sequence (P59901 other isoform, or with tags, fused parts or gaps): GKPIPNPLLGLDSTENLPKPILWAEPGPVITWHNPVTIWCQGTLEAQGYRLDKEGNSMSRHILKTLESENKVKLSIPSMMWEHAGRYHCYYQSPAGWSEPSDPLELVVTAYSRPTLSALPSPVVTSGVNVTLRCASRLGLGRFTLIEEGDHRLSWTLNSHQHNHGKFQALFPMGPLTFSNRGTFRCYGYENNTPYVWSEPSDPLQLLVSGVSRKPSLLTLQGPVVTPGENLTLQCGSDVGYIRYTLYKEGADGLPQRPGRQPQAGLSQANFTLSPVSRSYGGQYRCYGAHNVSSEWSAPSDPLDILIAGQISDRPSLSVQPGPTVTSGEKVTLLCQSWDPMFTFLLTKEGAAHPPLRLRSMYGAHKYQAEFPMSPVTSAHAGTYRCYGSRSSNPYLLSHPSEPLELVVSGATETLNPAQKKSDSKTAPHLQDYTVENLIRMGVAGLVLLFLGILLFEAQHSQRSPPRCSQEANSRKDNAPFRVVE
The experiment in a line: flow cytometry, CHO transfectants.

The target in the next experiment is T18, Mutant D4-1B.
T18 construct: read as S304F; also called ILT2 mutant 4-1b; mutant 4-1b
Put plainly: flow cytometry titration on HEK293T cells transfected with ILT2 mutant 4-1b.

Experiment [16] has as its target T8, human ILT2 (LILRB1) expressed at the …. The experiment in a line: flow cytometry titration on HEK293T cells transfected with wild-type ILT2.
The target in another experiment is T19, Mutant D4-4.
T19 construct: also called ILT2 mutant 4-4; mutant 4-4
Put plainly: flow cytometry titration on HEK293T cells transfected with ILT2 mutant 4-4.

Experiment [17] deals with T10, human ILT2 on primary NK cells. Put plainly: cell-based or functional assay.
In experiment [18] the target is T20, anchored ILT2 D1 domain protein (human).
T20 construct: on CHO cells; the entry includes leader remnant, V5 tag and CD24 GPI anchor signal
The experiment in a line: flow cytometry on CHO cells expressing the anchored ILT2 D1 domain protein (SEQ ID NO: 46); stacked histograms, axis without numbers.

In a further experiment the target is T21, ILT2 mutant 4-1 (human, UniProt Q8NHL6 24-650).
T21 construct: transfected in HEK293T cells
Put plainly: flow cytometry titration on HEK293T cells transfected with ILT2 mutant 4-1.

Experiment [19] deals with T22, anchored ILT2 D2-D3-D4 domain protein (human, UniProt Q8NHL6 122-650).
T22 construct: on CHO cells; the entry includes leader remnant, V5 tag, and the ILT2 transmembrane and cytoplasmic parts
Put plainly: flow cytometry, CHO cells with anchored ILT2 domain proteins.

Experiment [20] concerns the target T23, anchored ILT2 D3-D4 domain protein (human, UniProt Q8NHL6 223-650).
T23 construct: on CHO cells; the entry includes leader remnant, V5 tag, and the ILT2 transmembrane and cytoplasmic parts
The description is as above.

The target of experiment [21] is T24, anchored ILT2 D4 domain protein (human, UniProt Q8NHL6 322-650).
T24 construct: on CHO cells; the entry includes leader remnant, V5 tag, and the ILT2 transmembrane and cytoplasmic parts
T24 sequence (Q8NHL6 other isoform, or with tags, fused parts or gaps limits assumed): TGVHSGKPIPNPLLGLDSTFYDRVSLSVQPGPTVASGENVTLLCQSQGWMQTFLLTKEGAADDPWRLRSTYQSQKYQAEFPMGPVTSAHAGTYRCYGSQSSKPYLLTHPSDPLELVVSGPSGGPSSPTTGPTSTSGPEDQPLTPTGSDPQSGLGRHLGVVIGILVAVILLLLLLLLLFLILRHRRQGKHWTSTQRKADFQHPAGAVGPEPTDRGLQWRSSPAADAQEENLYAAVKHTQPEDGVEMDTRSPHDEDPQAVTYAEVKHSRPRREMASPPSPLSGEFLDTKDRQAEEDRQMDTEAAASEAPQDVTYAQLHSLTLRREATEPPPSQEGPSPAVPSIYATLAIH
Put plainly: flow cytometry on CHO cells expressing the anchored ILT2 D4 domain protein (SEQ ID NO: 49); stacked histograms, axis without numbers.

A further experiment has as its target T25, ILT2 mutant 2 (human, UniProt Q8NHL6 24-650).
T25 construct: transfected in HEK293T cells; also called M2
The experiment in a line: flow cytometry titration on HEK293T cells transfected with ILT2 mutant 2.

A further experiment deals with T26, ILT2 mutant 1 (human, UniProt Q8NHL6 24-650).
T26 construct: transfected in HEK293T cells; also called M1
Put plainly: flow cytometry titration on HEK293T cells transfected with ILT2 mutant 1.

The target of experiment [22] is T9, ILT-2_6xHis recombinant protein. The experiment in a line: SPR, antibody captured on Protein-A, soluble ILT2 analyte; two state fit. Here is the method:
as §1, with “Seven serial dilutions of human ILT2 proteins, ranging from 1.95 nM to 250 nM were sequentially injected over the captured antibodies and allowed to dissociate for 10 min before regeneration. The entire sensorgram sets were fitted using the 1:1 kinetic binding model or two state reaction model, as a function of the profile of the curves.” left out

Experiment [23] has as its target T8, human ILT2 (LILRB1) expressed at the …. Put plainly: flow cytometry titration on HEK293T cells transfected with wild-type ILT2. This is another data set of the same source.

T13 sequence (Q8N6C8 other isoform, or with tags, fused parts or gaps): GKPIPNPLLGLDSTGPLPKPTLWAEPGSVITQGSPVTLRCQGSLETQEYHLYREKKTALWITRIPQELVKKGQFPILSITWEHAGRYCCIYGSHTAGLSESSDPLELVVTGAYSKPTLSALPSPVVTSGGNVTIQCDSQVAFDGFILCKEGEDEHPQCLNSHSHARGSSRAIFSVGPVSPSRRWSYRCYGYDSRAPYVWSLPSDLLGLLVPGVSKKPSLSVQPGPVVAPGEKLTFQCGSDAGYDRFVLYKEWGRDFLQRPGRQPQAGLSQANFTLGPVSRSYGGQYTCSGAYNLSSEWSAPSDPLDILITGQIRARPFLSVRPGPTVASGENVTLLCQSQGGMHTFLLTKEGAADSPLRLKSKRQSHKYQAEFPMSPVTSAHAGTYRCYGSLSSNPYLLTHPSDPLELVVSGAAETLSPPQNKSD
T12 sequence (Q8NHJ6 other isoform, or with tags, fused parts or gaps): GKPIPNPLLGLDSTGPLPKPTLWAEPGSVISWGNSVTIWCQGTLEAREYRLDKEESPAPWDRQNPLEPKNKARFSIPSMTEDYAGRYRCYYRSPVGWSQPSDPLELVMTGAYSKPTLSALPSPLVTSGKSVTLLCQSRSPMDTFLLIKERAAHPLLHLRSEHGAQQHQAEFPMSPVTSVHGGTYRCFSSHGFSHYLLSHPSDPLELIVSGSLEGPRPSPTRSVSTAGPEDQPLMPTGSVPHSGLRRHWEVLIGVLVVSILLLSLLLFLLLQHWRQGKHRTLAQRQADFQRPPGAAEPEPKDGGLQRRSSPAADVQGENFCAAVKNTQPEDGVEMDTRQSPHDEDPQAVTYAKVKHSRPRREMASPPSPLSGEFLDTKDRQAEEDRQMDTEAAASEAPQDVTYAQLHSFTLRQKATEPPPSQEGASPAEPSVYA
T15 sequence (Q8N149 other isoform, or with tags, fused parts or gaps): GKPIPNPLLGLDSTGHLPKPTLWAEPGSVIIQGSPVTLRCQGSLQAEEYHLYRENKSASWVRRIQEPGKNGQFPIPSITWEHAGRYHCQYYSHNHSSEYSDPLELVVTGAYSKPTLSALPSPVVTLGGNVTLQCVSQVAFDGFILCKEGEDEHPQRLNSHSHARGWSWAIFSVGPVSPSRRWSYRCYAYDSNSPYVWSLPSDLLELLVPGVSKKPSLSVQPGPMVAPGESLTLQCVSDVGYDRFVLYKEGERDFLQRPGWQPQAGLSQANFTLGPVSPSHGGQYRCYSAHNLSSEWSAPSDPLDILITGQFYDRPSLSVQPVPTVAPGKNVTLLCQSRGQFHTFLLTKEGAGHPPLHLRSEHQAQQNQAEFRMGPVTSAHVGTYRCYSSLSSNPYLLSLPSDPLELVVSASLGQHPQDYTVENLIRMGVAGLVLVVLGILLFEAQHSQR
T4 sequence (Q8NHL6 other isoform, or with tags, fused parts or gaps limits assumed): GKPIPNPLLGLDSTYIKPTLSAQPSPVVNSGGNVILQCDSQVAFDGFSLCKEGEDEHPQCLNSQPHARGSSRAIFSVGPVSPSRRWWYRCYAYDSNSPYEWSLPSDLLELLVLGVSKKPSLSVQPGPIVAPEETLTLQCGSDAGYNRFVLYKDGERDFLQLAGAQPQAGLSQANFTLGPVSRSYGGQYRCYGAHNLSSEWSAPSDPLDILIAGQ

B1: 18E1 (antibody, human IgG1, V domains shown)
VH: QVQLQQSGAELVKPGASVRLSCKASGYTFTAHTIHWVKQRSGQGLEWIGWLYPGSGSIKYNEKFKDKATLTADKSSSTVYMELSRLTSEDSAVYFCARHTNWDFDYWGQGTTLTVSS
VL: NIVLTQSPASLAVSLGQRATISCKASQSVDYGGASYMNWYQQKPGQPPKLLIYAASNLESGIPARFSGSGSGTDLTLNIHPVEEEDAAMYYCQQSNEEPWTFGGGTKLEIK
B1: the binding result in experiment [1] is reported as “no binding”; with ILT2 mutant 4-2, “no binding (tested: about 20 µg/ml)”; in experiment [2], “no binding”; in experiment [3], “no binding”; in experiment [4], “no binding”; in experiment [5], “no binding”. In addition, the binding result in the experiment with ILT2 mutant 4-5 is listed as “binds”; in experiment [9] it was “no binding”; in experiment [10], “no binding”; in experiment [11], “no binding”; in experiment [12], “no binding”; in experiment [13], “no binding”. Further, the binding result in [14] is “no binding”; in experiment [15] it was “no binding”; with Mutant D4-1B, “binds”; with Mutant D4-4 it was “binds”; in experiment [18], “no binding”; with ILT2 mutant 4-1 it was “no binding (tested: about 20 µg/ml)”. Besides, the EC50 in [6] turned out to be 0.12 µg/mL; in experiment [8], 0.11 µg/mL. Moreover, in experiment [7], the Kd is 0.2 nM. The koff in experiment [7] was 0.00011 s⁻¹. Also, the “EC50 (read off the curve)” value in [16] is around 0.3 µg/mL. The “CD137 expression on ILT2-positive primary NK cells” value in experiment [17] was found to be 2 fold. The “CD137 expression on NK cells of urothelial cancer patients with HLA-A2-expressing B cells” value in experiment [17] is above 2 fold.

B2: 27H5 (antibody, human IgG1, V domains shown)
VH: QVQLKESGPGLVAPSQSLSITCTVSGFSLTSYGVSWVRQPPGKGLEWLGVIWGDGNTNYHSALISRLSISKDNSKSQVFLKLNSLQTDDTATYYCARTNWDGWFAYWGQGTLVTVSA
VL: DIVMTQSHKFMSTSVGDRVSITCKASQDVGTAVAWYQQKPGQSPKLLIYWASTRHTGVPDRFTGSGSGTDFTLTISNVQSEDLADYFCQQYRSYPLGTFGGGTKLEIK
Consider B2, for which the binding result in [1], in [3], in experiment [5], in [19], in experiment [20] and in [21] was “no binding” each time. The binding result is “no binding (tested: about 20 µg/ml)” with ILT2 mutant 2; “no binding” in [9]; “no binding” in experiment [10]; “no binding” in [11]; “no binding” in [12]; “no binding” in experiment [13]. The binding result in [14] is “no binding”; in experiment [15], “no binding”; in the experiment with ILT2 mutant 1 it was “binds”. The midpoint of the response in [6], the EC50, lay at 0.52 µg/mL. Moreover, the Kd in experiment [22] was found to be 13.9 nM.

B3: 3H5 (antibody, human IgG1, V domains shown)
VH: QVQLKESGPGLVAPSQSLSITCTVSGFSLTSYGVSWVRQPPGKGLEWLGVIWGDGSTNYHSALISRLSISKDNSKSQVFLKLNSLQTDDTATYYCAKPRWDDYAMDYWGQGTSVTVSS
VL: DIQMTQTTSSLSASLGDRVTISCRASQDISNYLNWYQQKPDGTVKLLIYYTSRLHSGVPSRFSGSGSGTDYSLTISNLEQEDIATYFCQQGNTLWTFGGGTKLEIK
For the molecule B3, the binding result in experiment [1], in experiment [3], in [5], in experiment [19], in experiment [20] and in experiment [21] was “no binding” in each case. Besides, the binding result with ILT2 mutant 2 was “no binding (tested: about 20 µg/ml)”; in experiment [9] it was “no binding”; in [10], “no binding”; in experiment [11] it was “no binding”; in experiment [12], “no binding”; in experiment [13], “no binding”. The binding result in [14] is listed as “no binding”; in experiment [15] it was “no binding”; with ILT2 mutant 1 it was “binds”. Also, the EC50 in experiment [6] was 0.35 µg/mL; in [8] it was 0.48 µg/mL. Further, the “EC50 (read off the curve)” value in experiment [23] is around 0.9 µg/mL. Further, in [22], the Kd is 4.4 nM.
